Reference: patent US20260274944A1 (VECT HORUS, published 2026)

Experiments:
[1] = target: T1, mouse RAGE (mRAGE) fused to EGFP, expressed on CHO cells (mouse, UniProt Q62151 23-402); test: flow cytometry on CHO-mRAGE-EGFP cells, 4 °C, anti-6His detection
T1 construct: whole, on cells; also called CHO-mRAGE-EGFP; murine RAGE; not shown: EGFP from the pEGFP-N1 vector (Clontech), fused at the C-terminal (intracellular) end

[2] = target: T2, human RAGE (hRAGE) fused to EGFP, stably expressed on CHO cells (human, UniProt Q15109 23-404); test: flow cytometry on CHO-hRAGE-EGFP cells, 4 °C, anti-6His detection
T2 construct: whole, on cells; also called CHO-hRAGE-EGFP; human receptor; not shown: EGFP from the pEGFP-N1 vector (Clontech), fused at the C-terminal (intracellular) end

[3] = target: T2, human RAGE (hRAGE) fused to EGFP, …; test: apparent Kd (Kd app), flow cytometry on CHO-hRAGE-EGFP cells
Description: FIG. 3. Apparent Kd determination of VHHs on hRAGE- and mRAGE-expressing CHO cell lines. (A) CHO-hRAGE-EGFP and CHO-mRAGE-EGFP cells were incubated 1 hr at 4° C. with increasing concentrations of VHHs, detected with a mouse anti-6His (1/1000) and an Alexa647-conjugated anti-mouse secondary antibody (1/400). Measurements were performed using flow cytometry. The ratio of fluorescence intensity for each point was normalized with the corresponding EGFP signal (receptor expression) and gave rise to the arbitrary units. Data are presented as mean±SEM of at least 3 independent experiments. (B) Characteristics of selected VHHs: Molecular Weight (Da); Apparent Kd on human RAGE (nM); Apparent Kd on mouse RAGE (nM). Data are presented as mean±SEM of at least 3 independent experiments.
The binding properties of VHHs with affinity for RAGE were tested using flow cytometry, and apparent affinities (K_{d app}) were determined. […] Fluorescence levels were assessed using an Attune N×T flow cytometer (Thermo Fisher Scientific).
Three VHHs (VHH 1, 2 and 5) out of 5 bound both the human and the mouse RAGE and induced a concentration-dependent shift of the signal (FIG. 3-A). […] Moreover, no labelling of the CHO WT control cells was detected with all the tested VHHs (not shown). The VHH K_{d app} were calculated using GraphPad Prism software.

[4] = target: T1, mouse RAGE (mRAGE) fused to EGFP, …; test: apparent Kd (Kd app), flow cytometry on CHO-mRAGE-EGFP cells
Description: The binding properties of VHHs with affinity for RAGE were tested using flow cytometry, and apparent affinities (K_{d app}) were determined. All experiments were performed in 96 well plates using 2×10⁵ cells/well, at 4° C. with shaking. CHO cell lines expressing RAGE fused to EGFP or CHO WT cells were saturated with PBS/BSA 2% solution during 30 min to avoid nonspecific binding, followed by incubation with purified VHHs at concentrations ranging from 50 μM to 0.5 nM for 1 hr. After one wash in PBS/BSA 2%, cells were incubated for 1 hr with an anti-6His tag antibody (mouse), washed twice with PBS/BSA 2%, and incubated for 1 hr with an Alexa647-conjugated anti-mouse secondary antibody. After two last washes in PBS/BSA 2%, cells were fixed by incubation for 15 min with PBS/PFA 2%, washed once with PBS and finally resuspended in PBS. Fluorescence levels were assessed using an Attune N×T flow cytometer (Thermo Fisher Scientific).
The binding properties of VHH-siRNA conjugates with affinity for RAGE were tested using flow cytometry, and apparent affinities (K_{d app}) were determined. The same protocol as the one described in example IV was used.
All VHH-siRNAs bound the mRAGE and induced a concentration-dependent shift of the signal (FIG. 4-A), confirming that the VHH conjugated to both the siTTRm and the siSOD1m retained the binding to the receptor of interest. The VHH-siRNA K_{d app} were calculated using GraphPad Prism software.

HA-mRAGE = target: T3, HA-mRAGE (mouse, UniProt Q62151 23-402); test: immunocytochemistry, 250 nM on transfected CHO cells, anti-human Fc detection
T3 construct: mature; Transiently expressed on CHO cells; also called full-length mRAGE with N-terminal HA tag; not shown: HA tag at the N-terminus; EGFP fused at the C-terminal end (pEGFP-N1)
Excerpt: To determine the binding domain of VHH-RAGE-Fc, inventors suppressed RAGE domains sequentially, expressed the resulting truncated constructs mRAGE-ΔV, mRAGE-ΔV-C1 (FIG. 9-A) and compared VHHRAGE-Fc binding on the full-length construct (mRAGE and HA-mRAGE) in transfected CHO cells. An HA tag was introduced in the N-ter of each receptor to validate appropriate presentation of the extracellular domain using anti-HA, non-permeabilizing immunocytochemistry. EGFP was fused at the C-terminal end to enable easy visualization of the truncated and full-length receptor by fluorescence microscopy. […] The synthetised DNA fragments were cloned into a pEGFP-N1 plasmid after restriction using XhoI EcoRI and ligation. CHO WT cells were transfected using jetPEI™ with the different plasmid constructs according to the manufacturer's instructions.
For immunocytochemistry, living transfected cells were incubated with 250 nM VHH-RAGE-hFc or anti-HA antibody for 1 hr at 37° C. Cells were then fixed using PBS-PFA 4%.

[5] = target: T2, human RAGE (hRAGE) fused to EGFP, …; test: immunocytochemistry, 50 nM on living CHO-hRAGE-EGFP cells, anti-hFc detection
Description: (§1) Immunocytochemistry experiments on CHO cell lines expressing the mouse or human RAGE fused to EGFP were performed to confirm the ability of fusion proteins to bind the RAGE. For these experiments, VHH-Fc fusion proteins were incubated at 50 nM on living cells, detected using an Alexa594-conjugated anti-hFc antibody after cells fixation with PBS-PFA 4% and permeabilization of the cell membrane with PBS-0.1% Triton X100 and photographed with a confocal microscope.

[6] = target: T4, RAGE in mice lungs (endogenous mouse RAGE at the alveolar epithelium) (mouse, UniProt Q62151 23-402); test: double immunofluorescence on lung sections of mice injected at 35 nmol/kg, 48 hours post injection
T4 construct: whole, on cells; also called RAGE in the lung
Description: FIG. 10. Cellular binding/co-localization of VHH-Fc on RAGE in mice lungs. Immunocytochemistry was performed on the lungs of mice injected with VHH ctrl-Fc, VHH 1-Fc and VHH 5-Fc into tail vein at 35 nmol/kg. The mice were perfused with saline 48 hours post injection and the lungs were incubated in PFA 4% overnight. Lungs were extensively washed in PBS 1× and incubated 2 days in sucrose 30%. Double-immunofluorescent staining of lung tissue with anti-RAGE (Alexa Fluor 488, green) and with VHH-Fc (Alexa Fluor 594, red) antibodies were performed on lung sections. Cell nuclei were labeled with Hoechst #33342 at 0.5 μg/ml (blue). Co-labeling appears in yellow/orange in the merged pictures (right panel). Representative photographs were taken with a confocal microscope with 20× and 63× magnification.
To confirm the ability of fusion proteins to bind RAGE in vivo, immunocytochemistry experiments were performed on lungs of mice injected into the tail vein at 35 nmol/kg with VHH ctrl-Fc, VHH 1-Fc and VHH 5-Fc. Mice were perfused with saline 48 hours post injection and lungs were incubated in PFA 4% overnight. Lungs were extensively washed in PBS 1× and incubated 2 days in sucrose 30% before being snap frozen. The fixed lung was embedded in OCT and cut in 14 μm thick sections. […] Cell nuclei were labeled with Hoechst #33342. […]

[7] = target: T1, mouse RAGE (mRAGE) fused to EGFP, …; test: immunocytochemistry, 50 nM on living CHO-mRAGE-EGFP cells, anti-hFc detection
Description: as §1

[8] = target: T1, mouse RAGE (mRAGE) fused to EGFP, …; test: flow cytometry competition on CHO-mRAGE-EGFP cells; competitor against tracer VHH 1-Fc
Description: FIG. 8. Competition assay between VHHs and VHH 1-Fc. (A) Principle of the competition test. In a first step, CHO-mRAGE-EGFP cells were incubated 1 hr at 4° C. with the competitor in dilution series. Second, the tracer at EC80-90 was added and incubated for 1 hr at 4° C. […] Measurements were performed using flow cytometry. (B) CHO-mRAGE-EGFP cells were incubated with the competitors (VHHs). Tracer (VHH 1-Fc) at EC80 was then added and detected with Alexa647-conjugated anti-hFc antibody (1/400).

T2 sequence (Q15109 23-404): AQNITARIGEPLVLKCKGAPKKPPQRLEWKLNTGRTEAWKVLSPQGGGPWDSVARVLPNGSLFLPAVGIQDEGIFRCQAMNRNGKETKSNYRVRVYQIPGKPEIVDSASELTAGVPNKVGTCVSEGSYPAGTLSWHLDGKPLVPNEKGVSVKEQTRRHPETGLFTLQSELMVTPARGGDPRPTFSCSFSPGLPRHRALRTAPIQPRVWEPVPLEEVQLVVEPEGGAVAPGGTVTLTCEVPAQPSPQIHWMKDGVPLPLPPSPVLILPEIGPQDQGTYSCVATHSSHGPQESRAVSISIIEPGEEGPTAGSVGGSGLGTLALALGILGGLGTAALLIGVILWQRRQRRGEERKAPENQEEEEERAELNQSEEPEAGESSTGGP
T3 sequence (Q62151 23-402): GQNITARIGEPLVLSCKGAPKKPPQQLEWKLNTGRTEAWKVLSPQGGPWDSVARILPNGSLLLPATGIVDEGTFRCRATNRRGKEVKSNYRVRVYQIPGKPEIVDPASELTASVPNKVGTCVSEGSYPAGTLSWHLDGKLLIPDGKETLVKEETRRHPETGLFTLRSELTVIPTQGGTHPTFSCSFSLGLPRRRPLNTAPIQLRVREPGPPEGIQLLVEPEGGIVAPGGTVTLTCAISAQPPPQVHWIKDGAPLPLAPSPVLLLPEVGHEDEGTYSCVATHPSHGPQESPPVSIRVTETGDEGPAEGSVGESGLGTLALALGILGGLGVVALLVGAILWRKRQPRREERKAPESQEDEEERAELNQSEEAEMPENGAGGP
T1 sequence (Q62151 23-402): as above
T4 sequence (Q62151 23-402): as above

B1: VHH 1 (VHH)
VHH: QVQLVQSGGGLVQPGGSLRLSCAVSGSIFSSATMGWYRQAPGKQRELAARISSGGSTNYLDSVKGRFTISRDNAKNTVYLQMNSLKLEDTAVYYCRLQANFGLVDYWGKGTQVTVSS
notes: also called sdAb VHH 1
B1: binds [1]; binds [2].

B2: VHH 5 (VHH)
VHH: EVQLVESGGGLVQPGGSLRLSCAASGTIFSLNPMGWYRQAPGKQLELVALISDSGTANYADFVRGRFTISRDTTKKTLYLQMNSLEPEDTAVYYCRSTFAAGNFYWGQGTQVTVSS
notes: also called sdAb VHH 5
B2 was tested, and the Kd [3] was 204 nM and the Kd [4] was 1490 nM.

B3: VHH 2 (VHH)
VHH: QVQLVQSGGGLVQAGGSLRLSCAASGSVSSIYAMGWYRQAPGKQREWVTTITGRGITDYAASVKGRFTISRDTAKNAVYLQMNNLKPEDTARYYCKIDRRGYAPYWGQGTQVTVSS
notes: also called sdAb VHH 2
In the case of B3, the binding result [1] is reported as “binds” and the Kd [3] is reported as 350 nM.

B4: VHH 4-siSOD1m (other)
VHH: EVQLVESGGGLVQAGGSLRLSCVASGRTFSNYAMAWFRQAPGEEREFVARISWRGGRTSYADSVKGRFTISRDNAKNTVYLQMISLKPEDTAVYYCASEGGAFGGVYSATGSYDYWGQGTQVTVSSAAAEQKLISEEDLNGAAHHHHHHGS
modifications: siRNA siSOD1m linked through an azido linker put by bacterial transglutaminase on the glutamine residue of the myc tag, then copper-free click chemistry
notes: VHH-siRNA conjugate
B4 was tested, and the Kd [4] was 6.8 nM.

B5: VHH 2-siSOD1m (other)
VHH: QVQLVQSGGGLVQAGGSLRLSCAASGSVSSIYAMGWYRQAPGKQREWVTTITGRGITDYAASVKGRFTISRDTAKNAVYLQMNNLKPEDTARYYCKIDRRGYAPYWGQGTQVTVSSAAAEQKLISEEDLNGAAHHHHHHGS
modifications: siRNA siSOD1m linked through an azido linker put by bacterial transglutaminase on the glutamine residue of the myc tag, then copper-free click chemistry
notes: VHH-siRNA conjugate
With B5 the Kd [4] was 238 nM.

B6: VHH 1-Fc (Fc fusion)
chain: QVQLVQSGGGLVQPGGSLRLSCAVSGSIFSSATMGWYRQAPGKQRELAARISSGGSTNYLDSVKGRFTISRDNAKNTVYLQMNSLKLEDTAVYYCRLQANFGLVDYWGKGTQVTVSS
notes: VHH with no tag fused to a human IgG1 Fc; also called VHHRAGE-Fc fusion; VHH-RAGE-Fc; not shown: human IgG1-Fc fragment encoded by the pINFUSE-IgG1-Fc2 vector (InvivoGen)
B6: binds (HA-mRAGE); binds [5]; binds [6]. B6: binds [7].

B7: VHH 2-Fc (Fc fusion)
chain: QVQLVQSGGGLVQAGGSLRLSCAASGSVSSIYAMGWYRQAPGKQREWVTTITGRGITDYAASVKGRFTISRDTAKNAVYLQMNNLKPEDTARYYCKIDRRGYAPYWGQGTQVTVSS
notes: as for B6
B7: binds (HA-mRAGE); binds [7].

B8: VHH 3-Fc (Fc fusion)
chain: QVQLVQSGGGLVQAGGSLRLSCVASGRTFSNYAMAWFRQAPGEEREFVARISWSGGRTSYADSVKGRFTISRDNAKNTVYLQMISLKPEDTAVYYCATEAGAFGGVYSSTGSYDYWGQGTQVTVSS
notes: as for B6
B8: binds (HA-mRAGE); binds [7].

B9: VHH 4 (VHH)
VHH: EVQLVESGGGLVQAGGSLRLSCVASGRTFSNYAMAWFRQAPGEEREFVARISWRGGRTSYADSVKGRFTISRDNAKNTVYLQMISLKPEDTAVYYCASEGGAFGGVYSATGSYDYWGQGTQVTVSS
notes: also called sdAb VHH 4
Binder B9 has a Kd [4] of 32 nM.

B10: VHH 3 (VHH)
VHH: QVQLVQSGGGLVQAGGSLRLSCVASGRTFSNYAMAWFRQAPGEEREFVARISWSGGRTSYADSVKGRFTISRDNAKNTVYLQMISLKPEDTAVYYCATEAGAFGGVYSSTGSYDYWGQGTQVTVSS
notes: also called sdAb VHH 3
B10: binds [8].
